Measured values published in the DeepSol protein solubility set.

Assay: soluble on expression in E. coli; label from the status in PepcDB or PDB records

Sequence	soluble on expression in E. coli
RGRGPEAAAQEEAEEVGRSGPGRRAAQRRSPGLAMLLASAVVVWEWLNEHGRWRPYSPAVSHHIEAVVRAGPRAGGSVVLGQVDSRLAPYIIDLQSMNQFRQDTGTLRPVRRNYYDPSSAPGKGVVWEWENDNGSWTPYDMEVGITIQHAYEKQHPWIDLTSIGFSYVIDFNTMGQINRQTQRQRRVRRRLDLIYPMVTGTLPKAQSWPVSPGPATSPPMSPCSCPQCVLVMSVKAAVVNGSTGPLQLPVTRKNMPPPGVVKLPPLPGSGAKPLDSTGTIRGPLKTAPSQVIRRQASSMPTGTTMGSPASPPGPNSKTGRVALATLNRTNLQRLAIAQSRVLIASGVPTVPVKNLNGSSPVNPALAGITGILMSAAGLPVCLTRPPKLVLHPPPVSKSEIKSIPGVSNTSRKTTKKQAKKGKTPEEVLKKYLQKVRHPPDEDCTICMERLTAPSGYKGPQPTVKPDLVGKLSRCGHVYHIYCLVAMYNNGNKDGSLQCPTCKTIYGVKTGTQPPGKMEYHLIPHSLPGHPDCKTIRIIYSIPPGIQGPEHPNPGKSFSARGFPRHCYLPDSEKGRKVLKLLLVAWDRRLIFAIGTSSTTGESDTVIWNEVHHKTEFGSNLTGHGYPDANYLDNVLAELAAQGISEDSTAQEKD	soluble
RIETDERDSTNRASFKCPVCSSTFTDLEANQLFDPMTGTFRCTFCHTEVEEDESAMPKKDAR	soluble
RKDMEMNINFNMSYQKNKLLSLSGEYNGMHMTASDITPIGSLYGAGQNGGDNNVVYQIVGQPLGVFYLPHCKGLKENELGGYSYDIEDLNDDGEIDFSDGGDRYIAGQATPKVTIGSNISFRYKSFDIAMQINGAFGHKIFNGTGLAYTNMSIFPDYNVLKGAPEKNIIDQNVSDYWLEKGDYVNIEHITIGYNIPMKSKAVKSLRLSAGISNLATITGYSGLTPMINSYVVSNTLGIDDKRTYPLYRTYSLGLSIQF	not soluble
RMNVFDEHHFRVILDYAHNADGVRCMSELASKLEVKGKRITVLAGPGDRRDEDIVNIAKAAAGHFDIYICKADDNRRGRGVNEVPELLASSLRAEGIDESQIYCISDEVEAINKGLELANTDDLLMIFGDAITRCWKQIINFNSGHEPEQE	not soluble
RNKVKYIELLGKELEILKGGDLNYQITIRGNDELAALAGEMDSMRRAIRSRQEEEELAHLANRGIVTAMSHDLRTPLTALMGYLDILSIEEDPGKKQKYLSVCRDKACQIKSLSDKLFEYFLVYSSDQDELHADEVNGAEFVGQIVEESLFDLENEGIEVARRAGEITCRLLVDVDLMRRVFGNLFSNILKYADRSHAVQAEYGETKDELVIRLRNSVAADASERESSNIGLKTCETILKRHGGTFLYQKDAGMFEAEVRIPCIRE	not soluble
RPDPQEIEAQRKAAIEAARQDSIAKAEAELLAARTQGATPDSIKQAAGYNQYGLLAAATAGAEEQVELANGKIALKLSTKGGAIREVLLRDYKTHDGKPLYLFREGESDFNLPLRTVDNRLVDTRDLYFSPISRTDSSVVMRLAVDSASYLDLAYVLLPDDYRLRMTVSGQNLQSLFPANMTMQDLEWSQRIRRQEKSWKFENQYTSIYYKYSGDEVDRLSDSKQEDKKTLEEPLHWVSFKDKYFASVLVCDSYFENNKLAQKTAAAGSDYLKNCTMSATFPLDVRSGTKARFTFFFGPLKYNMLRAYDKGMKAEDNLDLDHLVYLGASIFRWINRYMIIPASTFLQQYFSN	not soluble
RPDQVKLALDKPAYNDGDTAKVTVTPPAAGKGYLLIESSEGPLWWKEIDVPAEGKSYEIPLDKQWARHDLYVTALVIRPGERKANVTPKRAVGVLHLPLDRAQRKLALTVTAPEKMRPKQPLTLKVVAKNADGSVPEQVQVLVSAVDVGILNITRY	not soluble
RPHVVKVYSEDGACRSVEVAAGATARHVCEMLVQRAHALSDETWGLVECHPHLALERGLEDHESVVEVQAAWPVGGDSRFVFRKNFA	soluble
RSARPPGPRVSRARCLPGLIAEQLLQQAARGQDRQQQLQRDPQKALCDLHPSWKEIQALQCRPGHPPEQPWETSQMPESQVKGSRRPKFHARPEDYAVSQPNRDIQEKREASLEESPVALGESASVPQVSETVPASQPLSKKTSSQSNSSSEGSMWATVPSSPTLDRDTASEVDDLEPDSVSLALEMGGSAAPAAPKLKIFMAQYNYNPFEGPNDHPEGELPLTAGDYIYIFGDMDEDGFYEGELDDGRRGLVPSNFVEQIPDSYIPGCLPAKSPDLGPSQLPAGQDEALEEDSLLSGKAQGVVDRGLCQMVRVGSKTEVATEILDTKTEACQLGLLQSMGKQGLSRPLLGTKGVLRMAPMQLHLQNVTATSANITWVYSSHRHPHVVYLDDREHALTPAGVSCYTFQGLCPGTHYRARVEVRLPRDLLQVYWGTMSSTVTFDTLLAGPPYPPLDVLVERHASPGVLVVSWLPVTIDSAGSSNGVQVTGYAVYADGLKVCEVADATAGSTLLEFSQLQVPLTWQKVSVRTMSLCGESLDSVPAQIPEDFFMCHRWPETPPFSYTCGDPSTYRVTFPVCPQKLSLAPPSAKASPHNPGSCGEPQAKFLEAFFEEPPRRQSPVSNLGSEGECPSSGAGSQAQELAEAWEGCRKDLLFQKSPQNHRPPSVSDQPGEKENCSQHMGTSKSPAPGFIHLRTECGPRKEPCQEKAALERVLRQKQDAQGFTPPQLGASQQYASDFHNVLKEEQEALCLDLWGTERREERREPEPHSRQGQALGVKRGCQLHEPSSALCPAPSAKVIKMPRGGPQQLGTGANTPARVFVALSDYNPLVMSANLKAAEEELVFQKKQLLRVWGSQDTHDFYLSECNRQVGNIPGCLVAEMEVGTEQTDRRWRSPAQGHLPSVAHLEDFQGLTIPQGSSLVLQGNSKRLPLWTPKIMIAALDYDPGDGQMGGQGKGRLALRAGDVVMVYGPMDDQGFYYGELGGHRGLVPAHLLDHMSLHGH	soluble
RSPYDMEVIGQTIDDAAGEAFDKCAKVMGLGYPGGPIVNKLASEGNPDAFRFARPHVSGYDYSFSGLKTSFLYTLRDKLAEDPDFIEKNKADLCASLQHTVIDILMKKLRQAAKDHSIKQVALAGGVSANTGLRDAFHDHARRYGWTVFIPKFAYTTDNAAMVAISGYYKYLQGDFCPIDAVPFSRITV	not soluble
RTHSGEKPYECYICHARFTQSGTMKMHILQKHTENVAKFHCPHCDTVIARKSDLGVHLRKQHSY	soluble
RVAGSAIDYWRAGILGKRRVRVENHIVLLGWNGSRTMHLIRMLQHEEEGKRPIVLCSRSDIENPLPGEIHFIKVTSYTDAQEMKNANITDASCIIVDNLSDDITLSAALYCASVNPDAHLLAYFKDDALGRLLSQHCPKAECIPAVGAEMLAKAAVDPGSSALHQELLASTRGMTQYSVIYPENQPITTIESIFGFIKKRHHATLIAFDIGNGIQLNPDLDAEVPPGTKLFYIADERIDDFAWKEMNKEQ	not soluble
RVARGWGGCGACGGSGIVGQGKGEPSRRRGRAAGRPQSMERGKMAEAESLETAAEHERILREIESTDTACIGPTLRSVYDGEEHGRFMEKLETRIRNHDREIEKMCNFHYQGFVDSITELLKVRGEAQKLKNQVTDTNRKLQHEGKELVIAMEELKQCRLQQRNISATVDKLMLCLPVLEMYSKLRDQMKTKRHYPALKTLEHLEHTYLPQVSHYRFCKVMVDNIPKLREEIKDVSMSDLKDFLESIRKHSDKIGETAMKQAQQQRNLDNIVLQQPRIGSKRKSKKDAYIIFDTEIESTSPKSEQDSGILDVEDEEDDEEVPGAQDLVDFSPVYRCLHIYSVLGARETFENYYRKQRRKQARLVLQPPSNMHETLDGYRKYFNQIVGFFVVEDHILHTTQGLVNRAYIDELWEMALSKTIAALRTHSSYCSDPNLVLDLKNLIVLFADTLQVYGFPVNQLFDMLLEIRDQYSETLLKKWAGIFRNILDSDNYSPIPVTSEEMYKKVVGQFPFQDIELEKQPFPKKFPFSEFVPKVYNQIKEFIYACLKFSEDLHLSSTEVDDMIRKSTNLLLTRTLSNSLQNVIKRKNIGLTELVQIIINTTHLEKSCKYLEEFITNITNVLPETVHTTKLYGTTTFKDARHAAEEEIYTNLNQKIDQFLQLADYDWMTGDLGNKASDYLVDLIAFLRSTFAVFTHLPVSGSCSYFVLYI	soluble
SAAALRVAAVGARLSVLASGLRAAVRSLCSQATSVNERIENKRRTALLGGGQRRIDAQHKRGKLTARERISLLLDPGSFVESDMFVEHRCADFGMAADKNKFPGDSVVTGRGRINGRLVYVFSQDFTVFGGSLSGAHAQKICKIMDQAITVGAPVIGLNDSGGARIQEGVESLAGYADIFLRNVTASGVIPQISLIMGPCAGGAVYSPALTDFTFMVKDTSYLFITGPDVVKSVTNEDVTQEELGGAKTHTTMSGVAHRAFENDVDALCNLRDFFNYLPLSSQDPAPVRECHDPSDRLVPELDTIVPLESTKAYNMVDIIHSVVDEREFFEIMPNYAKNIIVGFARMNGRTVGIVGNQPKVASGCLDINSSVKGARFVRFCDAFNIPLITFVDVPGFLPGTAQEYGGIIRHGAKLLYAFAEATVPKVTVITRKAYGGAYDVMSSKHLCGDTNYAWPTAEIAVMGAKGAVEIIFKGHENVEAAQAEYIEKFANPFPAAVRGFVDDIIQPSSTRARICCDLDVLASKKVQRPWRKHANIPL	soluble
SAAEGDFLMRYRAVSNKLKKRFLRKPNVAEASEQFGQLAKELKQQDCPQYAAFCNLAMARCEQTLFNAPGEALALTDAARLFLASEQETRALRAPGFDENMQAAMNCYSFAIKVYIEMNQPVMAARLSLELGNALKEMNRPGEAIIHFQRAAELQIQMPIEALLSLWEMASCKILTRDYDGALAVLSEMQHMCQERGLQLPGTNTPVGAFMDIIAKCEISRVLLLMLLEPPPQKLLPEHAQTLERYAWESFDSHSQMACQEKDTESLKALQTELW	soluble
SAALAGVFVWDEERIQEEELQRSINEMKRLEEMSNMFQSSGVQHHPPEPKAQTEGNEDSEGKEQRWEMVMDKKHFKLWRRPITGTHLYQYRVFGTYTDVTPRQFFNVQLDTEYRKKWDALVIKLEVIERDVVSGSEVLHWVTHFPYPMYSRDYVYVRRYSVDQENNMMVLVSRAVEHPSVPESPEFVRVRSYESQMVIRPHKSFDENGFDYLLTYSDNPQTVFPRYCVSWMVSSGMPDFLEKLHMATLKAKNMEIKVKDYISAKPLEMSSEAKATSQSSERKNEGSCGPARIEYA	soluble
SADWARAQSPGAVEEILDRENKRMADSLASKVTRLKSLALDIDRDAEDQNRYLDGMVRAHGVRVSVPCPSTTCCRACSVSFSTGAGGWSNHHFCVILLGFLP	soluble
SAEDGLPKIYSHPPTESSKTPTAATIFFGADNAIPKSETTITSEGDHVTSVNEYMLESDFSTTTDNKLTAKKEKLKSEDDMGTDFIKSTTHLQKEITSLTGTTNSITRDSITEHFMPVKIGNISSPVTTVSLIDFSTDIAKEDILLATIDTGDAEISITSEVSGTLKDSSAGVADAPAFPRKKDEADMSNYNSSIKSNVPADEAVQVTDSIIPEAEIPPAPEESFTTIPDITALEEEKITEIDLSVLEDDTSAVATLTDSDEKFITVFELTTSAEKDKDKREDTLLTDEETTEGASIGMERDTANEAETHSVLLTAVESRYDFVVPASIATNLVEESSTEEDLSETDNTETVPKITEPFSGTTSVLDTPDYKEDTSTTETDIFELLKEEPDEFMI	not soluble
SAEGEDVGWWRSWLQQSYQAVKERSTEALEFMKRDLTEFTQVVQHDTACTIAATASVVKEKLATEGSSGATEKVKKGLSDFLGVISDTFAPSPDKTIDCDVITLMGTPSGTAEPYDGTKARLYSLQSDPATYCNEPDGPPELFDAWLSEFCLEEKKGEISELLVGSPSIRALYTKMVPAAVSHSEFWHRYFYKVHQLEQEQARRDALKQRADQSISEEPGWEEEEEELEGIVPSPKEAKIPKETKTTTSPEDEPAPQSPCEETPVEPPAEATPSESSESISLVTQVANPAAAPEAPELPKDLSQKLFEASLEEQSLAEDEGETGPPPPPPSKPLTPAGRASGPEPRPPARVETLREEVPTDLRVFELNSDSGKSTPSNNGKKGSSTDISEDWEKDFDLDMTEEEVQMALSKVDASGELEDVEWEDWE	not soluble
